Columns and labels:
RAD52 (Homo sapiens) [1] = molecular target: T1, RAD52 (Homo sapiens) (UniProt P43351); assay: single-molecule FRET; details: amino modifier C6 dT at last dT of gap
T1 sequence: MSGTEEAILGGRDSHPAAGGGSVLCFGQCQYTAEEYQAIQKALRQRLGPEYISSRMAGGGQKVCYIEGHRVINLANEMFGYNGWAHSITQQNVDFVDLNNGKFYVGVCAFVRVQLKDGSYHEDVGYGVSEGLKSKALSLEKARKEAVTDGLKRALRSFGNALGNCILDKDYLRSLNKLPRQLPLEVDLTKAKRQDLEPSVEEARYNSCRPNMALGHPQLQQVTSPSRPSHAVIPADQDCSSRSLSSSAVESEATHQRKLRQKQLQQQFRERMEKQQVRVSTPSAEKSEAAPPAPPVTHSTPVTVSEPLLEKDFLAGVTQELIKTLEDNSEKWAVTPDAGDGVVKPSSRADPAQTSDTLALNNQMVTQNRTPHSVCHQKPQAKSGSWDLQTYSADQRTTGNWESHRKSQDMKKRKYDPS

[2] = molecular target: RAD52 Y104pCMF Y104pCMF (Homo sapiens) (UniProt P43351); assay: single-molecule FRET; details: amino modifier C6 dT at last dT of gap
[3] = molecular target: RAD52 Y104pCMF Y104pCMF (Homo sapiens) (UniProt P43351); assay: FRET titration; details: scale: nM protein at maximum FRET
RAD52 (Homo sapiens) [4] = molecular target: T1, RAD52 (Homo sapiens); assay: competition

TATGCTCTAAGCCATCCATGTATTTTTTTTTTTTTTTTTTTTTTTTTTTTCCCTAGATACCAGTAGATTCGGAAA / TTTCCGAATCTACTGGTATCTAGGG / TACATGGATGGCTTAGAGCATA [gapped DNA, 28-nt (dT) gap]
binding signal (% molecules in high FRET (wrapped) state) (RAD52 (Homo sapiens) [1]): 9.47 | binding signal (% molecules in high FRET (wrapped) state) [2]: 43.5

TTTTTTTTTTTTTTTTTTTTTTTTTTTTTT [Cy5-(dT)30-Cy3]
binding signal [3]: 5

linearized PhiX174 RFI dsDNA
binding signal (% ssDNA released at 150 nM nt dsDNA) (RAD52 (Homo sapiens) [4]): 95.1
